How the values were obtained:
acetylcholine receptor [1] = experiment: SPR, AchR on chip, peptide 10 uM
acetylcholine receptor [2] = experiment: SPR, AchR immobilised on chip, peptide 10 uM

Binder | Binding affinity (RU) (acetylcholine receptor [1]) | Binding affinity (RU) (acetylcholine receptor [2])
KSQCR [5mer-24] | 67 | 
KQYLR [5mer-316] | 73 | 
RVQRR [5mer-10] | 55 | 
KSRQR [5mer-310] | 78 | 
KLYTK [5mer-16] | 66 | 
KSVSK [5mer-244] | 78 | 
KRFLR [5mer-4] | 58 | 
KLFLR [5mer-5] | 54 | 
RVFLR [5mer-12] | 70 | 
RWLCK [5mer-14] | 63 | 
KWFTR [5mer-21] | 63 | 
KRIYK [5mer-17] | 70 | 
KQRCK [5mer-307] | 82 | 
KLLSK [5mer-243] | 51 | 
RGRYK [5mer-20] | 78 | 
RSQLK [5mer-313] | 75 | 
KGRYR [5mer-303] | 87 | 
KQRLR [5mer-11] | 84 | 
RGVQR [5mer-9] | 77 | 
KSYYR [5mer-306] | 74 | 
RWQQK [5mer-6] | 61 | 
KRVLK [5mer-3] | 66 | 

Binder | Binding affinity (RU) (acetylcholine receptor [1]) | Binding affinity (RU) (acetylcholine receptor [2])
RLISK [5mer-13] | 52 | 
KWLYK [5mer-23] | 86 | 
KLFSR [5mer-315] | 77 | 
KRFQR [5mer-19] | 72 | 
KRICK [5mer-305] | 72 | 
RLRCR [5mer-308] | 84 | 
RGYTK [5mer-242] | 64 | 
RQLTK [5mer-7] | 54 | 
KVQYR [5mer-309] | 70 | 
KGVCK [5mer-15] | 75 | 
RWYTR [5mer-314] | 80 | 
KSFTR [5mer-246] | 60 | 
KVVYK [5mer-25] | 60 | 
RSVRK [5mer-304] | 76 | 
KRYCR [5mer-312] | 81 | 
RQRSR [5mer-8] | 51 | 
RQQLK [5mer-22] | 66 | 
RWYCR [5mer-247] | 80 | 
RWYLK [5mer-248] | 63 | 
RQLRR [5mer-18] | 69 | 
RQRSK [5mer-245] | 62 | 

Next, values leading:

Binding affinity (RU) (acetylcholine receptor [1]) | Binding affinity (RU) (acetylcholine receptor [2]) | Binder
58 |  | KSQRR [5mer-324]
 | 18 | RYTER [5mer-1106]
 | 33 | RPTKR [5mer-1105]
 | 13 | KFCIR [5mer-808]
63 |  | RLQLR [5mer-544]
 | 24 | KDKPR [5mer-799]
65 |  | RLRLK [5mer-543]
60 |  | KWLCK [5mer-548]
74 |  | RVQTR [5mer-319]
77 |  | KWYYR [5mer-323]
 | 18 | KKSHR [5mer-1103]
 | 12 | RETHK [5mer-1104]
 | 27 | RPTNR [5mer-805]
86 |  | RRVQR [5mer-317]
 | 14 | RATAR [5mer-1099]
 | 17 | RKMFR [5mer-806]
64 |  | KRVCK [5mer-318]
85 |  | KRYTR [5mer-542]

Binding affinity (RU) (acetylcholine receptor [1]) | Binding affinity (RU) (acetylcholine receptor [2]) | Binder
65 |  | KVVLK [5mer-546]
 | 11 | KYKNR [5mer-1101]
 | 21 | RPWHK [5mer-1107]
75 |  | RVVQR [5mer-320]
 | 20 | KFHGR [5mer-801]
 | 20 | KTHKK [5mer-1102]
80 |  | KGQYR [5mer-545]
68 |  | RSLSR [5mer-321]
50 |  | KRIQR [5mer-325]
84 |  | RRQSR [5mer-322]
 | 11 | RFSDR [5mer-803]
77 |  | KQVTK [5mer-547]
 | 20 | RKNKK [5mer-807]
 | 24 | RPWKR [5mer-1100]
 | 27 | RITVR [5mer-802]
 | 20 | RNTIR [5mer-804]
 | 29 | KEAPR [5mer-800]
80 |  | KVFLK [5mer-541]

From patent publication US20250011363A1, “OPTIMIZED SHORTENED PEPTIDE THAT BINDS TO ACETYLCHOLINE RECEPTOR, AND USE THEREOF” (SKINMED CO., LTD., priority 2021, published 2025)
